Key:
[1] = biological target: T1, human serum albumin (human, UniProt P02768 25-609); test: BLI (OCTET RED96), VHH-IgG1-Fc on protein A biosensor, albumin in solution, pH 7.4; grade legend in paragraph 477
T1 construct: The immunogen was rice-expressed HSA (Sigma A9731); also called HSA
Protocol: (§1) The VHH anti-albumin antibodies were evaluated for their ability to interact with human, monkey, and mouse serum albumins at different pH values, e.g., pH 7.4 or pH 5.5 to simulate the pH of an acidified endosome. Briefly, a VHH anti-albumin antibody was fused onto a human IgG1-Fc. The expressed protein was then loaded onto a protein A biosensor (OCTET® RED96). The biosensor was in turn dipped into a solution containing a human, monkey, or mouse serum at three or more different concentrations, e.g., 50, 100, or 200 nM, or 100, 200, or 400 nM. Primary experimental data was analyzed with global fitting to determine a dissociation constant (KD). The results are summarized in Table 7 (pH 5.5) and Table 8 (pH 7.4), wherein A represents a value no greater than 10 nM, B represents a value greater than 10 nM but no greater than 100 nM, and C represents a value greater than 100 nM but no greater than 500 nM.

[2] = biological target: T2, monkey serum albumin (monkey (cynomolgus monkey in paragraph 472), UniProt A2V9Z4 25-608); test: as above
T2 construct: also called cynomolgus monkey serum albumin; CySA
Protocol: as §1

[3] = biological target: T3, mouse serum albumin (mouse, UniProt P07724 25-608); test: BLI (OCTET RED96), VHH-IgG1-Fc on protein A biosensor, pH 7.4
T3 construct: also called MuSA
Protocol: as §1

[4] = biological target: T1, human serum albumin; test: as above
Protocol: as §1

[5] = biological target: T2, monkey serum albumin; test: as above
Protocol: as §1

[6] = biological target: T1, human serum albumin; test: BLI (OCTET RED96), VHH-IgG1-Fc on protein A biosensor, albumin in solution, pH 5.5; grade legend in paragraph 477
Protocol: as §1

Row | Binder | binding result [3] | other results
1 | anti-HSA VHH antibody A2 fused onto a human IgG1-Fc (Fc fusion, Llama VHH; also called Ab A2; not shown: human IgG1 Fc) QVQLVESGGGLVQAGGSLRLSCAASGRSVSLYHVGWFRHTPGKEREFVAATAWHDGSTSYADSVKGRFTISRNNAKNTVYLQMNSLQPEDTAVYYCAGEAKLGGIYSRWRDYEYWGQGTQVTVSS | no binding | Kd [1]: ≤ 10 nM; Kd [2]: ≤ 10 nM
2 | anti-HSA VHH antibody A11 fused onto a human IgG1-Fc (Fc fusion, Llama VHH; also called Ab A11; not shown: human IgG1 Fc) QVQVVESGGGLVQPGGSLRLSCAASGMSSANVMGWYRQVPGNQRELVARITSSGRTMYSDSVLGRFTISRGGAGNTADLQMNMLKPEDTAIYICNIRILGSFDPDSGYWGQGTQVTVSS | no binding | binding result [4]: no binding; binding result [5]: no binding
3 | anti-HSA VHH antibody A3 fused onto a human IgG1-Fc (Fc fusion, Llama VHH; also called Ab A3; not shown: human IgG1 Fc) QVQLVESGGGLVQAGGSLRLSCAASGRTFSIYDMGWFRQAPGKEREFVAATNLRGVSTRYADSVKGRFTISGDNAKNTVSLQMNSLIPEDTAVYYCAAAVSNWLAKDPSAYSYWGQGTQVTVSS | no binding | Kd [1]: ≤ 10 nM
4 | anti-HSA VHH antibody A13 fused onto a human IgG1-Fc (Fc fusion, Llama VHH; also called Ab A13; not shown: human IgG1 Fc) QVQLVESGGGSVQPGGSLRLSCAASGRNFNPMGWFRQAPGKQRESVAAIGTDGSTKYADSVKGRFTISRDNGKNTVYLQMNSLKSEDTAVYYCNVGGWGISWFPWGRGTQVSVSS | no binding | 
5 | anti-HSA VHH antibody A9 fused onto a human IgG1-Fc (Fc fusion, Llama VHH; also called Ab A9; not shown: human IgG1 Fc) QVQLVESGGGLVQAGGSLRLSCAASGRTFSNDAMGWFRQAPGKERVFVATISWKSSTYYADSVKGRFTISRDHAKNTVYLQMNNLKPEDTAVYYCVADPYGLGFNPSDYDYWGQGTQVTVSS | no binding | Kd [1]: ≤ 10 nM
6 | anti-HSA VHH antibody A1 fused onto a human IgG1-Fc (Fc fusion, Llama VHH; also called Ab A1; not shown: human IgG1 Fc) QVQLVESGGGLVQPGGSLRLSCAASGRIFSTYAMGWFRQPPGKEREFVASINRSGDSTYYADSVKGRFTISRDNAKNTGYLQMSSLKPEDTAVYYCAADSDGIGWFNSFEYDYWGRGTQVTVSS | no binding | Kd [1]: ≤ 10 nM; Kd [2]: ≤ 10 nM
7 | anti-HSA VHH antibody A18 fused onto a human IgG1-Fc (Fc fusion, Llama VHH; also called Ab A18; not shown: human IgG1 Fc) QEQLVESGGGLVQAGGSLRLSCAASTRTINIYAMAWFRQAPGKEREFVAAVTWSGLTRDYADSVKGRFTISRDNPKNTLYLQMNSLQPEDTAVYYCAAGRYSTGTHDYDYWGQGTQVTVSS | no binding | binding result [4]: no binding; binding result [5]: no binding
8 | anti-HSA VHH antibody A15 fused onto a human IgG1-Fc (Fc fusion, Llama VHH; also called Ab A15; not shown: human IgG1 Fc) QVQLVESGGGLVQPGGSLRLSCAASGFAFRGFGMSWVRQAPGKGFEWVSSINNGGSDTRYADSVKGRFTISRDNARNTLYLQMNSLKPEDTAVYYCAIGGPGASPSGQGTQVTVSS | no binding | 
9 | humanized anti-HSA VHH antibody A20 fused onto a human IgG1-Fc (Fc fusion, also called Ab A20; anti-HSA A20; not shown: human IgG1 Fc) QVQLVESGGGVVQPGGSLRLSCAASGFAFRGFGMSWVRQAPGKGLEWVSSINNGGSDTYYADSVKGRFTISRDNSKNTLYLQMNSLRAEDTAVYYCAIGGPGASPSGQGTQVTVSS | no binding | 
10 | anti-HSA VHH antibody A14 fused onto a human IgG1-Fc (Fc fusion, Llama VHH; also called Ab A14; not shown: human IgG1 Fc) QVQLVESGGGLVQPGGSLRLSCAASGFTFRGFGMSWVRQAPGKGFEWVSSINSGGEDTRYSDSVKGRFTISRDNARNTLYLQMNSLKPEDTAVYYCAIGGAGATPSGQGTQVTVSS | no binding | 
11 | anti-HSA VHH antibody A8 fused onto a human IgG1-Fc (Fc fusion, Llama VHH; also called Ab A8; not shown: human IgG1 Fc) QVQLVESGGGLVQPGGSLRLSCAASGSTWSINTLAWYRQAPGKQRDLVARISSGGSTHYADSVKGRFTVSRDNAENTLVLQMNSLKPEDTAVYYCYAQSTWYPPSWGQGTQVTVSS |  | Kd [6]: ≤ 10 nM
12 | humanized anti-HSA VHH antibody A19 fused onto a human IgG1-Fc (Fc fusion, also called Ab A19; anti-HSA A19; not shown: human IgG1 Fc) EVQLVESGGGLVQPGGSLRLSCAASGSTWSINTLAWYRQAPGKQRDLVARISSGGSTYYADSVKGRFTISRDNSKNTLYLQMNSLRAEDTAVYYCYAQSTWYPPSWGQGTLVTVSS |  | Kd [2]: ≤ 10 nM
13 | anti-HSA VHH antibody A16 fused onto a human IgG1-Fc (Fc fusion, Llama VHH; also called Ab A16; not shown: human IgG1 Fc) QVQLVESGGGLVQAGGTLRLSCTASGSTFRGNGMAWHRQAPGKEREFVAYMGMTDRITYAESVKGRFTLSRDDAKNRVYLHMNNLEVEDTAVYYCTAFGSWGQGTQVTVSS | no binding | binding result [5]: no binding

Continued, in another order:

Row | binding result [3] | Binder | other results
14 | no binding | anti-HSA VHH antibody A6 fused onto a human IgG1-Fc (Fc fusion, Llama VHH; also called Ab A6; not shown: human IgG1 Fc) QVQLVESGGGLVQAGGSLRLSCAASGRSVSLYHVGWFRHTPGKEREFVAATAWHDGSTSYADSVKGRFTISRNNAKNTVYLQMNSLQPEDTAVYYCAGEAKLGGIYSRWRDYEYWGQGTQVTVSS | Kd [1]: ≤ 10 nM; Kd [2]: ≤ 10 nM
15 | no binding | anti-HSA VHH antibody A7 fused onto a human IgG1-Fc (Fc fusion, Llama VHH; also called Ab A7; not shown: human IgG1 Fc) QVQLVESGGGLVQAGGSLRLSCAASGRSVSLYHVGWFRHTPGKEREFVAATAWHDGSTSYADSVKGRFTISRDSAKNTVFLQMSSLQPEDTAVYYCAADPGGSSWSQPWYDYWGQGTQVTVSS | 
16 | no binding | anti-HSA VHH antibody A10 fused onto a human IgG1-Fc (Fc fusion, Llama VHH; also called Ab A10; not shown: human IgG1 Fc) QVQLVESGGGLVQAGGSLRLSCLASGGTFSSYAMGWFRQAPGKEREFVAAISWKSSTYYTDSVKGRFTISRDNAKNTVYLQMNSLTPEDTAVYYCAADPTGSYDQPWYDYWGQGTQVTVSS | 
17 | no binding | anti-HSA VHH antibody A4 fused onto a human IgG1-Fc (Fc fusion, Llama VHH; also called Ab A4; not shown: human IgG1 Fc) QVQLVESGGGLVQPGGSLRLSCAASGRIFSTYAMGWFRQPPGKEREFVASINRSGDSTYYADSVKGRFTISRDDAKNMGYLQMSSLKPEDTAVYYCAADSDGIGWFNSFEYDYWGRGTQVTVSS | Kd [2]: ≤ 10 nM
18 | no binding | anti-HSA VHH antibody A17 fused onto a human IgG1-Fc (Fc fusion, Llama VHH; also called Ab A17; not shown: human IgG1 Fc) QVQLVESGGELVQAGGSLRLSCVVSGRTFRTRTMGWFRQAPGKEREYVAHISANGPITDYSDSVKGRFAISRDNAKNTVNLQMNSLKPEDTAVYYCALHNGIGVRTVPSQYDSWGQGTQVTVSS | binding result [5]: no binding
19 | no binding | anti-HSA VHH antibody A12 fused onto a human IgG1-Fc (Fc fusion, Llama VHH; also called Ab A12; not shown: human IgG1 Fc) EVQLVESGGGLVQPGGSLRLSCAASGFTFRGFGMSWVRRAPGKEFEWVSSINGGGEDTRYSDSVKGRFTISRDNARNTLYLQMNSLKPEDSAVYYCAIGGPGATPSGPGTQVTVSS | 
